Tests used:
animal model of stroke = experiment: Animal model of stroke (ischemia/reperfusion); type: in vivo, mice; settings: treated just prior to reperfusion
Procedure: For example, the RAGE fusion proteins of the present invention may also be used to treat stroke. […] In this model, the […] of a mouse is ligated and then reperfused to form an infarct. To assess the efficacy of RAGE fusion proteins to treat or prevent stroke, mice were treated with sRAGE or TTP-4000 or control immunoglobulin just prior to reperfusion. […] TTP-4000 was also compared to sRAGE in a disease relevant animal model of stroke. In this model, the […] of a mouse was ligated for 1 hour followed by 23 hours of reperfusion at which point the mice were sacrificed and the area of the infarct in the brain was assessed. […] After the nylon suture had been in place for 1 hour, the animal was re-anesthetized, rectal temperature was recorded and the suture was removed and the incision closed. Infarct volume was determined by anesthetizing the animals with an intraperitoneal injection of sodium pentobarbital (50 mg/kg) and then removing the brains. […] The infarct area in each section was determined with a computer-assisted image analysis system, consisting of a Power Macintosh computer equipped with a Quick Capture frame grabber card, Hitachi CCD camera mounted on a camera stand. […] The images were captured and the total area of infarct was determined over the sections. […] Summing the infarct volumes of the sections calculated the total infarct volume. […]

amphoterin (Ampho) = target: T1, amphoterin (Ampho) (Homo sapiens, UniProt P09429); experiment: In vitro ligand binding ELISA, immobilized amphoterin; settings: ligand 5 micrograms per well; fusion protein at increasing dilutions, 37° C. one hour
T1 sequence (P09429 1-215): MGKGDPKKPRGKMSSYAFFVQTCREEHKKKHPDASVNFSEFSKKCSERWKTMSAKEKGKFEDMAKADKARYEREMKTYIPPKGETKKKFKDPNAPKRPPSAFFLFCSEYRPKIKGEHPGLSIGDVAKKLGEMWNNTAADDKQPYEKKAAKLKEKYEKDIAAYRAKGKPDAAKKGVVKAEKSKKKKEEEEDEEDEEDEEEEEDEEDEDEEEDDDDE
Procedure: (§1) For example, the RAGE fusion protein may be used in a binding assay to identify potential RAGE ligands. In one example embodiment of such a binding assay, a known RAGE ligand may coated onto a solid substrate (e.g., Maxisorb plates) at a concentration of about 5 micrograms per well, where each well contains a total volume of about 100 microliters (4). The plates may be incubated at 4° C. overnight to allow the ligand to absorb or bind to the substrate. Alternatively, shorter incubation periods at higher temperature (e.g., room temperature) may be used. […] The RAGE fusion protein bound to the immobilized ligand may be detected in a variety of ways. […] The bound complex may be detected by adding the alkaline phosphatase substrate, para-nitrophenylphosphate (PNPP), and measuring conversion of PNPP to para-nitrophenol (PNP) as an increase in absorbance at 405 nm. […] In the absence of ligand (i.e., coating with only BSA) there was no increase in absorbance. […] Binding was detected by the addition of an immunodetection complex containing a monoclonal mouse anti-human IgG1 diluted 1:11,000 to a final assay concentration (FAC) of 21 ng/100 μL, a biotinylated goat anti-mouse IgG diluted 1:500, to a FAC of […], and an avidin-linked alkaline phosphatase. […]

S100b (S100) = target: T2, S100b (S100) (Homo sapiens, UniProt P04271); experiment: In vitro ligand binding ELISA, immobilized S100b; settings: ligand 5 micrograms per well; fusion protein at increasing dilutions, 37° C. one hour
T2 sequence (P04271 1-92): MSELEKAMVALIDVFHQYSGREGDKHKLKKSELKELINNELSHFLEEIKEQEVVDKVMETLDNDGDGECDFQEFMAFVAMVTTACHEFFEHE
Procedure: as §1

binding to immobilized amphoterin (increase in absorbance at 405 nm) (amphoterin (Ampho)): specifically interact | binding to immobilized S100b (increase in absorbance at 405 nm) (S100b (S100)): specifically interact
B1: TTP-4000: four domain RAGE fusion protein: human RAGE N-terminal sequence (to position 251) linked to human IgG Fc (γ1) without hinge; SEQ ID NO: 34/56 (protein)
chain: QNITARIGEPLVLKCKGAPKKPPQRLEWKLNTGRTEAWKVLSPQGGGPWDSVARVLPNGSLFLPAVGIQDEGIFRCQAMNRNGKETKSNYRVRVYQIPGKPEIVDSASELTAGVPNKVGTCVSEGSYPAGTLSWHLDGKPLVPNEKGVSVKEQTRRHPETGLFTLQSELMVTPARGGDPRPTFSCSFSPGLPRHRALRTAPIQPRVWEPVPLEEVQLVVEPEGGAVAPPSVFLFPPKPKDTLMISRTPEVTCVVVDVSHEDPEVKFNWYVDGVEVHNAKTKPREEQYNSTYRVVSVLTVLHQDWLNGKEYKCKVSNKALPAPIEKTISKAKGQPREPQVYTLPPSRDELTKNQVSLTCLVKGFYPSDIAVEWESNGQPENNYKTTPPVLDSDGSFFLYSKLTVDKSRWQQGNVFSCSVMHEALHNHYTQKSLSLSPGK
reduction in infarct volume compared to sRAGE (animal model of stroke): significantly greater reduction in infarct volume
